Reference: US7115410

Experiments:
[1] = biological target: MBP-C125 (maltose-binding protein fused to the last 125 amino acids of APP), P05067
[2] = biological target: APP 751 with the Swedish mutation (APPsw), P05067
[3] = biological target: APP 751 wild type (expressed from pohCK751), P05067
[4] = biological target: MBP-C125sw (maltose-binding protein fused to the last 125 amino acids of APP, Swedish double mutation) [MBP: P0AEX9]
[5] = biological target: T1, P26-P4′sw substrate ((biotin)CGGADRGLTTRPGSGLTNIKTEEISEVNLDAEF) (not fully specified)
T1 chain: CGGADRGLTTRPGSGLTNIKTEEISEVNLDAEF

MBP-C125 (maltose-binding protein fused to the last 125 amino acids of APP), P05067, sequence (P05067 whole entry, looked up, the tested form may be a part): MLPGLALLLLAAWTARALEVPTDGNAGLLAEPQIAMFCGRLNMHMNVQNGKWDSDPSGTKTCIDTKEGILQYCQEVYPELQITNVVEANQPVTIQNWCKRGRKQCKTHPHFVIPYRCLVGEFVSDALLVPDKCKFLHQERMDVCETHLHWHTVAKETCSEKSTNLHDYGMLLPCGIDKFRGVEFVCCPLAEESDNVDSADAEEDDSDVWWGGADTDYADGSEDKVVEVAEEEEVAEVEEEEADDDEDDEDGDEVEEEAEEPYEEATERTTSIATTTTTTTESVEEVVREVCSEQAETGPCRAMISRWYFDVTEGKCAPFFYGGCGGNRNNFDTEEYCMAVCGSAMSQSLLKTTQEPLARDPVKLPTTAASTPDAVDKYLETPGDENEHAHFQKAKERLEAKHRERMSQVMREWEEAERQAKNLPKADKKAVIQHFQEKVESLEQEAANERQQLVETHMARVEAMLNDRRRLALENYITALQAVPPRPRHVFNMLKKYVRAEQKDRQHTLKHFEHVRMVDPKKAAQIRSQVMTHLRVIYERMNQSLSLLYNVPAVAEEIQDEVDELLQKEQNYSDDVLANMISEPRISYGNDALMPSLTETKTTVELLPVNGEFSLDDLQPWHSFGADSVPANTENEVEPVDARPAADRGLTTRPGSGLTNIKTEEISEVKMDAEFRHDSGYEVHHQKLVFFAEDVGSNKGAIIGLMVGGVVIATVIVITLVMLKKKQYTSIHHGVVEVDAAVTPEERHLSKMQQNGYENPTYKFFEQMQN
APP 751 wild type (expressed from pohCK751), P05067, sequence (P05067 whole entry, looked up, the tested form may be a part): as above
APP 751 with the Swedish mutation (APPsw), P05067, sequence (P05067 whole entry, looked up, change not shown): as the sequence (P05067 whole entry, looked up, the tested form may be a part) above

B1: FLp501 (full length recombinant β-secretase having a C-terminal flag sequence) (protein)
chain: TQHGIRLPLRSGLGGAPLGLRLPRETDEEPEEPGRRGSFVEMVDNLRGKSGQGYYVEMTVGSPPQTLNILVDTGSSNFAVGAAPHPFLHRYYQRQLSSTYRDLRKGVYVPYTQGKWEGELGTDLVSIPHGPNVTVRANIAAITESDKFFINGSNWEGILGLAYAEIARPDDSLEPFFDSLVKQTHVPNLFSLQLCGAGFPLNQSEVLASVGGSMIIGGIDHSLYTGSLWYTPIRREWYYEVIIVRVEINGQDLKMDCKEYNYDKSIVDSGTTNLRLPKKVFEAAVKSIKAASSTEKFPDGFWLGEQLVCWQAGTTPWNIFPVISLYLMGEVTNQSFRITILPQQYLRPVEDVATSQDDCYKFAISQSSTGTVMGAVIMEGFYVVFDRARKRIGFAVSACHVHDEFRTAAVEGPFVTLDMEDCGYNIPQTDESTLMTIAYVMAAICALFMLPLCLMVCQWRCLRCLRQQHDDFADDISLLKDYKDDDDK
B1 was tested, and the cleavage of substrate [1] was “Both enzymes exhibited activity in cleaving β-secretase substrates such as MBP-C125”.

B2: full length β-secretase (clone 27; 1-501) (protein)
chain: TQHGIRLPLRSGLGGAPLGLRLPRETDEEPEEPGRRGSFVEMVDNLRGKSGQGYYVEMTVGSPPQTLNILVDTGSSNFAVGAAPHPFLHRYYQRQLSSTYRDLRKGVYVPYTQGKWEGELGTDLVSIPHGPNVTVRANIAAITESDKFFINGSNWEGILGLAYAEIARPDDSLEPFFDSLVKQTHVPNLFSLQLCGAGFPLNQSEVLASVGGSMIIGGIDHSLYTGSLWYTPIRREWYYEVIIVRVEINGQDLKMDCKEYNYDKSIVDSGTTNLRLPKKVFEAAVKSIKAASSTEKFPDGFWLGEQLVCWQAGTTPWNIFPVISLYLMGEVTNQSFRITILPQQYLRPVEDVATSQDDCYKFAISQSSTGTVMGAVIMEGFYVVFDRARKRIGFAVSACHVHDEFRTAAVEGPFVTLDMEDCGYNIPQTDESTLMTIAYVMAAICALFMLPLCLMVCQWRCLRCLRQQHDDFADDISLLK
In the case of B2, the “Aβ(x-40) production (ELISA of conditioned media)” value [2] is reported as “approximate 2-fold increase in Aβ(x-40)” and the “Aβ(x-40) production (ELISA of conditioned media)” value [3] is reported as “approximately 8-fold increase in Aβ(x-40) production”.

B3: β-secretase purified from human brain (naturally occurring) (protein)
chain: ETDEEPEEPGRRGSFVEMVDNLRGKSGQGYYVEMTVGSPPQTLNILVDTGSSNFAVGAAPHPFLHRYYQRQLSSTYRDLRKGVYVPYTQGKWEGELGTDLVSIPHGPNVTVRANIAAITESDKFFINGSNWEGILGLAYAEIARPDDSLEPFFDSLVKQTHVPNLFSLQLCGAGFPLNQSEVLASVGGSMIIGGIDHSLYTGSLWYTPIRREWYYEVIIVRVEINGQDLKMDCKEYNYDKSIVDSGTTNLRLPKKVFEAAVKSIKAASSTEKFPDGFWLGEQLVCWQAGTTPWNIFPVISLYLMGEVTNQSFRITILPQQYLRPVEDVATSQDDCYKFAISQSSTGTVMGAVIMEGFYVVFDRARKRIGFAVSACHVHDEFRTAAVEGPFVTLDMEDCGYNIPQTDESTLMTIAYVMAAICALFMLPLCLMVCQWRCLRCLRQQHDDFADDISLLK
B3 showed a Specific Activity (MBP-C125sw assay), Affinity Eluate (nM/h/µg prot.) [4] of 258000 and a Specific Activity (MBP-C125sw assay), Anion Exchange Pool (nM/h/µg prot.) [4] of 1.49e+06.

B4: 452stop (recombinant β-secretase extending from position 1 to 452) (protein)
chain: TQHGIRLPLRSGLGGAPLGLRLPRETDEEPEEPGRRGSFVEMVDNLRGKSGQGYYVEMTVGSPPQTLNILVDTGSSNFAVGAAPHPFLHRYYQRQLSSTYRDLRKGVYVPYTQGKWEGELGTDLVSIPHGPNVTVRANIAAITESDKFFINGSNWEGILGLAYAEIARPDDSLEPFFDSLVKQTHVPNLFSLQLCGAGFPLNQSEVLASVGGSMIIGGIDHSLYTGSLWYTPIRREWYYEVIIVRVEINGQDLKMDCKEYNYDKSIVDSGTTNLRLPKKVFEAAVKSIKAASSTEKFPDGFWLGEQLVCWQAGTTPWNIFPVISLYLMGEVTNQSFRITILPQQYLRPVEDVATSQDDCYKFAISQSSTGTVMGAVIMEGFYVVFDRARKRIGFAVSACHVHDEFRTAAVEGPFVTLDMEDCGYNIPQTDEDYKDDDDK
In the case of B4, the cleavage of substrate [1] is reported as “Both enzymes exhibited activity in cleaving β-secretase substrates such as MBP-C125”, the cleavage of substrate [4] is reported as “exhibited activity in cleaving the MBP-C125sw substrate” and the cleavage of substrate [5] is reported as “exhibited activity in cleaving the MBP-C125sw substrate as well as the P26-P4′ substrate”.
